The values that follow are results of earlier work, collected in publication PMC4828448.

This data set deals with nisin (Lactococcus lactis) (UniProt P13068).
UniProt P13068, sequence (P13068 24-57): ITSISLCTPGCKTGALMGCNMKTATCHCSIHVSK

For the substance NisI (from UniProt P42708), the Kd was 1 µM.

What is called Kd is a measure of binding affinity in units of concentration.
